In the supplement of paper PMC10065799, “High-throughput profiling of sequence recognition by tyrosine kinases and SH2 domains using bacterial peptide display” (eLife, 2023):

Columns and labels:
MERTK = MERTK (UniProt Q12866); assay: phosphorylation enrichment, bacterial display (enrichment ratio); higher = better substrate or ligand; peptides without Tyr show the background
c-Abl (mouse) = assay: as above
Hck = Hck (UniProt P08631); assay: as above
EPHB1 = EPHB1 (UniProt P54762); assay: as above
EPHB2 = EPHB2 (UniProt P29323); assay: as above
FGFR1 = FGFR1 (UniProt P11362); assay: as above
Jak2 = Jak2 (UniProt O60674); assay: as above
c-Src = assay: as above
Fyn = Fyn (UniProt P06241); assay: as above
AncSZ = assay: as above
Fer (mouse) = assay: as above
Fes = Fes (UniProt P07332); assay: as above
FGFR3 = FGFR3 (UniProt P22607); assay: as above
Grb2 SH2 = Grb2 SH2 (UniProt P62993); assay: SH2 binding enrichment of the phosphorylated peptide, bacterial display (enrichment ratio); higher = better substrate or ligand; peptides without Tyr show the background
c-Src SH2 = assay: as above
SHP2-C SH2 = assay: as above
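Wherever SH2 binding enrichment of the phosphorylated peptide, bacterial display is given: peptide library displayed on the E. coli surface as eCPX fusions, selected cells deep-sequenced, score is each peptide's frequency after selection divided by its frequency in the input.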
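Wherever phosphorylation enrichment, bacterial display is given: 11-residue human phosphosite peptides and single-mutation variants displayed on the E. coli surface, counted by deep sequencing, each peptide's frequency after selection divided by its frequency in the unselected input library; frequency after pTyr selection over input frequency; kinase dosed for 20-30% of maximal phosphorylation in three min.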

Chain of Fyn (P06241 whole entry, looked up): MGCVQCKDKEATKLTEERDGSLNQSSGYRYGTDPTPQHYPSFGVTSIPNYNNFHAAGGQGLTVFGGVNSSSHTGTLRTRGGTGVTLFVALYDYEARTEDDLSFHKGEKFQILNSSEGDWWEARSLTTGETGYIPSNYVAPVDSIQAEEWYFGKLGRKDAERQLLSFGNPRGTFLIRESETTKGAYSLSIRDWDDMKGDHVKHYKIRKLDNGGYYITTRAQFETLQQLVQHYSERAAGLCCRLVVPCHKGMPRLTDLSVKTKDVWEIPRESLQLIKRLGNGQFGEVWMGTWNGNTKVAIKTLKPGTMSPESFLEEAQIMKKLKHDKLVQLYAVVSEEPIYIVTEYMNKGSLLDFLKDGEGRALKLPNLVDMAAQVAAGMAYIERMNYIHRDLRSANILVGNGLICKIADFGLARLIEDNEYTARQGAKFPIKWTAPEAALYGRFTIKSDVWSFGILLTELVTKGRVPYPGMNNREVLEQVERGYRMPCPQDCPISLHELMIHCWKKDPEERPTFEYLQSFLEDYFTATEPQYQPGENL
Chain of FGFR3 (P22607 whole entry, looked up): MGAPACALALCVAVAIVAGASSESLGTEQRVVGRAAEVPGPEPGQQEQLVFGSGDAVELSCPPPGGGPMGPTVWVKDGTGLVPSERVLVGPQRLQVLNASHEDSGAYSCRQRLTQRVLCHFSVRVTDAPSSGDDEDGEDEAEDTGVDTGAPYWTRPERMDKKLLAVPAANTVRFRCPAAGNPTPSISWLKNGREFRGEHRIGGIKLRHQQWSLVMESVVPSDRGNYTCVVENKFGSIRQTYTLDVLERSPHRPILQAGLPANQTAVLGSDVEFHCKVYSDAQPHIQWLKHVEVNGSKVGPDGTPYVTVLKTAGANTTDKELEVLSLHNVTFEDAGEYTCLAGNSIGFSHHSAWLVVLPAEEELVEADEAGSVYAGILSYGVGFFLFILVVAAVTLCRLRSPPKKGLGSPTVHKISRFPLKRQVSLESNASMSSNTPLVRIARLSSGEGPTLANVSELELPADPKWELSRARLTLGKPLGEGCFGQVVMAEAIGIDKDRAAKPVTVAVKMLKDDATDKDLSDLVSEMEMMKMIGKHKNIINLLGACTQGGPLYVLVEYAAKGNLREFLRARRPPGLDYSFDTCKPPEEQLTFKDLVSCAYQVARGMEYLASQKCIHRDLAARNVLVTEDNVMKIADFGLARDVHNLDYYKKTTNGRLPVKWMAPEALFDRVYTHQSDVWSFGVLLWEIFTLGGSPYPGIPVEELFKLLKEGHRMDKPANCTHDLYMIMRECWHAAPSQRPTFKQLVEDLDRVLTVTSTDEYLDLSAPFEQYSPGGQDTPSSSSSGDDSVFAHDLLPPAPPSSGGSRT
Chain of MERTK (Q12866 whole entry, looked up): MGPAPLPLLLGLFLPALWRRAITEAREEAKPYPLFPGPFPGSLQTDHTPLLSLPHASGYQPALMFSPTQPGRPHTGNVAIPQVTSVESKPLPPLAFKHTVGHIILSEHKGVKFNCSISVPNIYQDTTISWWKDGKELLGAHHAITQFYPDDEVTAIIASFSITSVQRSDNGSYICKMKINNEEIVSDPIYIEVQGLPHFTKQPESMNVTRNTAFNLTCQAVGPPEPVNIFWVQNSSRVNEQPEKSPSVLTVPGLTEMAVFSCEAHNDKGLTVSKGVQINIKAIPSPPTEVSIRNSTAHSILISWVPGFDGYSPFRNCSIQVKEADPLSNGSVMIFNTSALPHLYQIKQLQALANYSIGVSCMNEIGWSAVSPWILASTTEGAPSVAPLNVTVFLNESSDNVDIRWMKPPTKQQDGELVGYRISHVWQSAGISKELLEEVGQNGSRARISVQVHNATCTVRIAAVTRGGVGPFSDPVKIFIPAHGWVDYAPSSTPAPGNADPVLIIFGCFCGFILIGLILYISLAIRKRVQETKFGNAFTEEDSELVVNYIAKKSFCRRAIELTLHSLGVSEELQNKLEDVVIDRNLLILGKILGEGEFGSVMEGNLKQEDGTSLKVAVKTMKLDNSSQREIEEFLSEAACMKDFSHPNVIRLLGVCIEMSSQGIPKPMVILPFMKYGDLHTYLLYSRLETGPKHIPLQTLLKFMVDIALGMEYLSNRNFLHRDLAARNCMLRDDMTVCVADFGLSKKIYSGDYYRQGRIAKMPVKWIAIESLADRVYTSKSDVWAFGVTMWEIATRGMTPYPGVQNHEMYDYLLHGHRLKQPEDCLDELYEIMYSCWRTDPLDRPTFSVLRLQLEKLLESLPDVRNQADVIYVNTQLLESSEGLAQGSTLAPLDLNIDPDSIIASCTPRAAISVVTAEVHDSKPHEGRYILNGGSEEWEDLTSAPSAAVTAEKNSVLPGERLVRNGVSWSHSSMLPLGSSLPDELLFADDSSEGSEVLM
Chain of Fes (P07332 whole entry, looked up): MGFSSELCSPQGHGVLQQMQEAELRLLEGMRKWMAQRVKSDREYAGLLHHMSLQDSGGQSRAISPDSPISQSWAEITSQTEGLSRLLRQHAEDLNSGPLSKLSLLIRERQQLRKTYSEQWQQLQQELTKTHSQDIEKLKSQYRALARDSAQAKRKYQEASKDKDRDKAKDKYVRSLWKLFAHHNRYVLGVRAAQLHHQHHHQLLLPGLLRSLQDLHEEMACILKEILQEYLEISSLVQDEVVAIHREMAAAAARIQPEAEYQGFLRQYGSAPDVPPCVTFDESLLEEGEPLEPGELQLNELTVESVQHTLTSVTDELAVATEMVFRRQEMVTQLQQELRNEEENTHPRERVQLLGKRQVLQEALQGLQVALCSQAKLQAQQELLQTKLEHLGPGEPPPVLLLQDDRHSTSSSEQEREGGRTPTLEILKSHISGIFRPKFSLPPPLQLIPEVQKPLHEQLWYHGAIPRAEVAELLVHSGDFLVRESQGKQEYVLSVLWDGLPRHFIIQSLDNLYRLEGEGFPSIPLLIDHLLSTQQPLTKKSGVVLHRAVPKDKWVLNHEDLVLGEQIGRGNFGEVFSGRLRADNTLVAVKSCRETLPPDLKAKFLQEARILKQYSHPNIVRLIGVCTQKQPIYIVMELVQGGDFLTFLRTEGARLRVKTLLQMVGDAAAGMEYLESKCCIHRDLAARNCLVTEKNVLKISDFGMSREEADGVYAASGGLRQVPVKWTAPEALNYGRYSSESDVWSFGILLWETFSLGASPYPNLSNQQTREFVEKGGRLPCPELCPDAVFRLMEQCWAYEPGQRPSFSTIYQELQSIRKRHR
Chain of EPHB2 (P29323 whole entry, looked up): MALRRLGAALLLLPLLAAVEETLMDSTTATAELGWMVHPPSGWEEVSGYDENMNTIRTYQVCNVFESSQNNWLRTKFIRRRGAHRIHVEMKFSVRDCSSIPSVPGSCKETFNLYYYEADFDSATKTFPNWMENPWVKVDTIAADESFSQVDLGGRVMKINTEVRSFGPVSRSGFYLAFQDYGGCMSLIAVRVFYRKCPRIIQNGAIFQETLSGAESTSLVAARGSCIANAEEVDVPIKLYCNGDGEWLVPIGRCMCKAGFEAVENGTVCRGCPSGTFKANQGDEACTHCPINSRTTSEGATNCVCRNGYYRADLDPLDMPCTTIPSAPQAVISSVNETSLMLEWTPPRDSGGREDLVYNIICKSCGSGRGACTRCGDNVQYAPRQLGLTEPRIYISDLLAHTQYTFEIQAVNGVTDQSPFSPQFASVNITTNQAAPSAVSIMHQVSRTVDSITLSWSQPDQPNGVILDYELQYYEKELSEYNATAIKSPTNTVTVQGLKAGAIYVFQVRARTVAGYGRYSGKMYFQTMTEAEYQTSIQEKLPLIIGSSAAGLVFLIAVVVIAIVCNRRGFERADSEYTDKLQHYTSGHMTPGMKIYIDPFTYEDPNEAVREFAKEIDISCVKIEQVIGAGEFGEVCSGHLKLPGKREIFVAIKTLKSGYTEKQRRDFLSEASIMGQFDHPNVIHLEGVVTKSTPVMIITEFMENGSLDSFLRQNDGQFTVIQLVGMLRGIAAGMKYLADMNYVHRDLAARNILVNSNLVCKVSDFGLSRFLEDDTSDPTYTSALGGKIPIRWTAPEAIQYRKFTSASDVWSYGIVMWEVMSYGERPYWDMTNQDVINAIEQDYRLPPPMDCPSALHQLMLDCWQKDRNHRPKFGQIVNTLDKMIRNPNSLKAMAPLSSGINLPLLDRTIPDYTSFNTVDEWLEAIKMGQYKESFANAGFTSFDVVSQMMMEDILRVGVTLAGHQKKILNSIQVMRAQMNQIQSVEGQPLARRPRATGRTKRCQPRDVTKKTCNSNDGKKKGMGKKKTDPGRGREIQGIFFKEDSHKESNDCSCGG
Chain of FGFR1 (P11362 whole entry, looked up): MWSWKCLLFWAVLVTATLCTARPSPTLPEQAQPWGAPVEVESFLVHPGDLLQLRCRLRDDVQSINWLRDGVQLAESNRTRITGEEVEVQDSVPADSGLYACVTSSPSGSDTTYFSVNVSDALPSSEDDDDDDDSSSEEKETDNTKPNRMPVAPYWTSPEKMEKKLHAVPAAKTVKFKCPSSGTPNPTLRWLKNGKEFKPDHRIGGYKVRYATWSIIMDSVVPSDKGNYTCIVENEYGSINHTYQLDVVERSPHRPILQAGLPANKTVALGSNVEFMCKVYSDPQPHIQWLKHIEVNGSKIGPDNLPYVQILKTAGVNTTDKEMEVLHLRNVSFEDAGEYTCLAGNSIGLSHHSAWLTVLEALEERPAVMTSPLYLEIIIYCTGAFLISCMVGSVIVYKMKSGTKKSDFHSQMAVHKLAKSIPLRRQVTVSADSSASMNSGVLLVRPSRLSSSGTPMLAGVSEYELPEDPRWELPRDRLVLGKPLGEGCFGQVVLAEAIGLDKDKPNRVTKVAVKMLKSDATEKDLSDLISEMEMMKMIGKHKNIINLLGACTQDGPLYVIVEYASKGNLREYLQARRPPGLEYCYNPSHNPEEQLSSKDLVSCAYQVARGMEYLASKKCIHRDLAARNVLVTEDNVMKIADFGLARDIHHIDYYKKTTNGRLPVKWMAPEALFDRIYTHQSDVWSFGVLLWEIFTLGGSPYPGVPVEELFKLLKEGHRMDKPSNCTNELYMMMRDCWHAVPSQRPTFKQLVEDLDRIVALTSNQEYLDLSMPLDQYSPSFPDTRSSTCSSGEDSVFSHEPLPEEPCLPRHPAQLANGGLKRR

Sequence | SH2 binding enrichment (Grb2 SH2) | SH2 binding enrichment (c-Src SH2) | SH2 binding enrichment (SHP2-C SH2) | phosphorylation enrichment (MERTK) | phosphorylation enrichment (c-Abl (mouse)) | phosphorylation enrichment (Hck) | phosphorylation enrichment (EPHB1) | phosphorylation enrichment (EPHB2) | phosphorylation enrichment (FGFR1) | phosphorylation enrichment (Jak2) | phosphorylation enrichment (c-Src) | phosphorylation enrichment (Fyn) | phosphorylation enrichment (AncSZ) | phosphorylation enrichment (Fer (mouse)) | phosphorylation enrichment (Fes) | phosphorylation enrichment (FGFR3)
FLRKEYGGLNV [CBR3_Y81] | 0.667 | 0.435 | 0.432 | 0.385 | 0.412 | 0.404 | 0.4 | 0.519 | 0.393 | 0.615 | 0.334 | 0.45 | 0.584 | 0.375 | 0.618 | 0.437
DPEATYTTSGG [EPHA2_Y772] | 0.671 | 0.435 | 0.528 | 0.418 | 0.943 | 0.591 | 0.533 | 0.57 | 0.502 | 1.09 | 0.789 | 0.523 | 1.22 | 0.502 | 1.19 | 0.754
FETSHYLASPD [CTNND2_Y1217_P1218L_YF] | 0.923 | 0.473 | 0.904 | 0.664 | 0.658 | 0.513 | 0.878 | 0.635 | 0.568 | 0.73 | 0.523 | 0.557 | 0.791 | 0.502 | 0.824 | 0.752
SNNYIYKTLGV [FAM83B_Y639] | 1.01 | 0.393 | 0.968 | 0.357 | 0.494 | 0.549 | 0.48 | 0.328 | 0.484 | 0.46 | 0.476 | 0.467 | 0.523 | 0.354 | 0.58 | 0.546
VTSLKYSTSPF [BRIP1_Y916_YF] | 1.09 | 0.455 | 0.664 | 0.412 | 0.482 | 0.464 | 0.469 | 0.507 | 0.435 | 0.711 | 0.403 | 0.433 | 0.605 | 0.408 | 0.695 | 0.689
LSSEMCVKSFT [F5_Y2149_Y2149C_YF] | 1 | 0.641 | 0.603 | 0.854 | 0.932 | 0.971 | 0.472 | 1.34 | 1.07 | 1.11 | 0.726 | 0.683 | 1.36 | 0.815 | 1.45 | 1.13
ENFDDYMKDVG [FABP4_Y20_E23D] | 0.832 | 0.428 | 0.729 | 0.52 | 1.13 | 0.554 | 0.635 | 0.663 | 0.546 | 1.24 | 0.43 | 0.564 | 1.17 | 0.443 | 1.12 | 0.764

More lines, main results first:

SH2 binding enrichment (Grb2 SH2) | SH2 binding enrichment (c-Src SH2) | SH2 binding enrichment (SHP2-C SH2) | Sequence | phosphorylation enrichment (MERTK) | phosphorylation enrichment (c-Abl (mouse)) | phosphorylation enrichment (Hck) | phosphorylation enrichment (EPHB1) | phosphorylation enrichment (EPHB2) | phosphorylation enrichment (FGFR1) | phosphorylation enrichment (Jak2) | phosphorylation enrichment (c-Src) | phosphorylation enrichment (Fyn) | phosphorylation enrichment (AncSZ) | phosphorylation enrichment (Fer (mouse)) | phosphorylation enrichment (Fes) | phosphorylation enrichment (FGFR3)
0.813 | 0.554 | 1.09 | TSKLNYLDPRI [TOP1_Y723] | 0.359 | 0.407 | 0.3 | 4.39 | 1.7 | 0.919 | 0.506 | 0.405 | 0.371 | 0.534 | 0.241 | 0.599 | 0.585
0.851 | 3.3 | 0.898 | QNTGNYYDLYG [PTPN11_Y62_D61N] | 13.2 | 1.28 | 8.01 | 30.6 | 28.7 | 22.8 | 2.99 | 5.18 | 9.62 | 2.38 | 3.81 | 1.65 | 20.6
0.814 | 0.588 | 1.1 | EYITRYIDSLK [PSMA7_Y110_A112D] | 0.395 | 0.498 | 0.558 | 0.396 | 0.552 | 0.528 | 0.677 | 0.479 | 0.504 | 0.829 | 0.461 | 0.832 | 0.572
1.49 | 0.908 | 1.43 | AQMAMYFWEMG [TRPM4_Y577] | 2.67 | 1.11 | 1.36 | 0.995 | 0.914 | 3.25 | 1.37 | 2.62 | 1.1 | 1.38 | 0.682 | 1.45 | 3.09
1.37 | 0.606 | 0.726 | KIPGRYFETGS [PAX2_Y72_L69P_YF] | 0.464 | 0.633 | 0.396 | 0.382 | 0.546 | 0.471 | 0.783 | 0.521 | 0.466 | 0.604 | 0.427 | 1.31 | 0.531
0.642 | 0.502 | 0.775 | REEIKYMLWLS [OTC_Y55_G50R] | 0.734 | 0.944 | 0.786 | 0.697 | 0.992 | 0.961 | 1.15 | 0.474 | 0.661 | 1.23 | 0.955 | 1.58 | 1.4
0.469 | 0.376 | 0.573 | QKINNYLTVPA [SLC9A1_Y683] | 0.65 | 0.833 | 0.689 | 1.34 | 0.706 | 0.758 | 0.615 | 0.524 | 0.508 | 0.618 | 0.497 | 0.727 | 0.445
0.86 | 2.38 | 0.46 | YEDALYTVLHR [UNC13D_Y61] | 9.59 | 11.5 | 9.13 | 16.6 | 15.9 | 3.68 | 1.7 | 7.21 | 8.38 | 3.84 | 12.9 | 2.06 | 3.1
0.903 | 0.53 | 0.598 | EASEQHLTKAS [NRCAM_Y739_Y739H] | 0.343 | 0.663 | 0.447 | 0.38 | 0.496 | 0.433 | 0.692 | 0.396 | 0.48 | 0.887 | 0.497 | 0.859 | 0.551
